# B1: Ab327 (antibody, V domains shown)
# VH: DVKLVESGEGLVKPGGSLKLSCAASGFTFSSYAMSWVRQTPEKRLEWVTYISSGGDYIYYADTVKGRFTISRDNARNTLYLQMSSLKSEDTAMYYCTRERIWLRRFFDVWGTGTTVTVSS
# VL: DIVMTQSQKFMSTSVGDRVSITCKASQNVGTAVAWYQLKPGQSPKLLIYSASNRFTGVPDRFTGSGSGTDFTLTISNMQSEDLADYFCQQYSSYPLTFGSGTKLEIKR
# notes: rodent hybridoma mAb
# B2: Ab325 (antibody, V domains shown)
# VH: QVQLQQSGAELVKPGASVKISCKASGYAFSSYWMNWVKQRPGKGLEWIGQIYPGDGDTNYNGKFKGKATLTADKSSSTAYMQLSSLTSEDSAVYFCARWYYGSYYAMDYWGQGTSVTVSS
# VL: DIQMTQTTSSLSASLGDRVTISCRASQDISNYLNWYQQKPDGTVKLLIYYTSRLHSGVPSRFSGSGSGTDYSLTISNLEQEDIATYFCQQGNTLPRTFGGGTKLEIKR
# notes: rodent hybridoma mAb
# B3: Ab352 (antibody, V domains shown)
# VH: EVQLVQSGPEVKKPGTSVKLSCKASGYTFTSYWMHWVRQARGQRLEWIGYIKPSSGYTKYNQKFKDRATLTADKSTSTAYMELSSLRSEDTAVYYCARDYYGSSSWFAYWGQGTLVTVSS
# VL: EIVMTQSPAFLSVTPGEKVTITCKASQNVGTNVAWYQQKPDQAPKALIYSASYRYSGVPSRFSGSGSGTDFTLTISSLEAEDAATYYCQQYNSYPYMYTFGQGTKLEIK
# notes: humanized
# B4: Ab400 (antibody, V domains shown)
# VH: EVQLVQSGPEVKKPGTSVKLSCKASGYTFTSYWMHWVRQARGQRLEWIGYIKPSSGYTKYNQKFKDRATLTADKSTSTAYMELSSLRSEDTAVYYCARDYYGSSSWFAYWGQGTLVTVSS
# VL: EIVMTQSQATMSTSVGERATLSCKASQNVGTNVAWYQQKPGQSPKALIYSASYRYSGVPARFSGSGSGTDFTLTISSVEPEDFAVYYCQQYNSYPYMYTFGQGTKLEIK
# notes: humanized
# B5: Ab403 (antibody, V domains shown)
# VH: QVQLVQSGAEVAKPGASVKLSCKASGYTFTSYWMHWVKQAPGQGLEWIGYIKPSSGYTKYNQKFKDKATLTADKSTSTAYMELRSLRSDDTAVYYCARDYYGSSSWFAYWGQGTLVTVSS
# VL: EIVMTQSQATMSTSVGERATLSCKASQNVGTNVAWYQQKPGQSPKALIYSASYRYSGVPARFSGSGSGTDFTLTISSVEPEDFAVYYCQQYNSYPYMYTFGQGTKLEIK
# notes: humanized
# B6: Ab355 (antibody, V domains shown)
# VH: QVQLVQSGAEVAKPGASVKLSCKASGYTFTSYWMHWVKQAPGQGLEWIGYIKPSSGYTKYNQKFKDKATLTADKSTSTAYMELRSLRSDDTAVYYCARDYYGSSSWFAYWGQGTLVTVSS
# VL: EIVMTQSPAFLSVTPGEKVTITCKASQNVGTNVAWYQQKPDQAPKALIYSASYRYSGVPSRFSGSGSGTDFTLTISSLEAEDAATYYCQQYNSYPYMYTFGQGTKLEIK
# notes: humanized
# B7: Ab402 (antibody, V domains shown)
# VH: EVQLVQSGAEVKKPGTSVKLSCKASGYTFTSYWMHWVRQARGQRLEWIGYIKPSSGYTKYAQKFQERVTLTADKSTSTAYMELSSLRSEDTAVYYCARDYYGSSSWFAYWGQGTLVTVSS
# VL: EIVMTQSQATMSTSVGERATLSCKASQNVGTNVAWYQQKPGQSPKALIYSASYRYSGVPARFSGSGSGTDFTLTISSVEPEDFAVYYCQQYNSYPYMYTFGQGTKLEIK
# notes: humanized
# B8: Ab331 (antibody, V domains shown)
# VH: EVQVVETGGGVVQPGKSLEITCATSGLTFSTAWMYWVRQSSDRRLEWIARIKDKSNNFASDYVESVRGRFTISRDDSRSSVYLQMNNLKEEDTATYYCTTSYGYAWGQGVMVTVSS
# VL: DIQMTQSPSSMSASLGDRITITCQASQDIGNYLIWFQQKPGKSPRPLIYYATNLANGVPSRFSGSRSGSEYSLTITSLESEDMADYHCLQYKQHLTFGSGTKLEIER
# notes: rodent hybridoma mAb
# B9: Ab326 (antibody, V domains shown)
# VH: QVQLQQSGAELAKPGASVKLSCKASGYTFTSYWMHWVKQRPGQGLEWIGYIKPSSGYTKYNQKFKDKATLTADKSSSTAYMQLSSLTYEDSAVYYCARDYYGSSSWFAYWGQGTLVTVSA
# VL: DIVMTQSQRFMSTSVGDRVSVTCKASQNVGTNVAWYQQKPGQSPKALIYSASYRYSGVPDRFTGSGSGTDFTLTISNVQSEDLAEYFCQQYNSYPYMYTFGGGTKLEIKR
# notes: rodent hybridoma mAb
# B10: Ab322 (antibody, V domains shown)
# VH: QVQLQQSGAELAKPGASVKLSCKASGYTFTNYWMHWVKQRPGQGLEWIGYINPSSGYTKYNQKFKDKATLTADKSSSTAYMQLSSLTYEDSAVYYCARDYYGSSSWFAYWGQGTLVTVSA
# VL: DIVMTQSQRFMSTSVGDRVSVTCKASQNVGTNVAWYQQKPGQSPKALIYSASYRYSGVPDRFTGSGSGTDFTLTVSNVQSEDLAEYFCQQYNSYPYMYTFGGGTKLEIKR
# notes: rodent hybridoma mAb
# B11: Ab323 (antibody, V domains shown)
# VH: QVQLQQSGAELVKPGASVKISCKTSGYTFSNYWMNWVKQRPGKGLEWIGQIFPGDADANYNGKFKGKATLTADKSSSAAFMQLSSLTSEDSAVYFCARFSYDGAFAYWGQGTLVTVS
# VL: DIVMTQSHKFMSTSVGDRVSITCKASQDVSTAVAWYQQKPGQSPKPLIYWASTRHTGVPDRFTGSGSGTDYTLTISSVQTEDLALYYCQQHYSTPRTFGGGTKLEIKR
# notes: rodent hybridoma mAb
# Assays:
# [1] = biological target: T1, human ALK on the surface of NB1 cells (human, UniProt Q9UM73 21-1620); assay: flow cytometry titration on NB1 cells, steady state
# T1 construct: ALK of NB1 cells; also called cell surface hALK; NB1 (human)
# Protocol: KD was determined by flow cytometry. Titration of each antibody on NB1 cells for 2-4 hours at 4° C. was followed by incubation with a fluorescently-labeled secondary antibody. The normalized mean fluorescent intensity […] shown as “% Max binding” was plotted as a function of antibody concentration.
# Flow cytometry was utilized to measure the affinity at steady state (KD) with which different ALK antibodies bind to ALK on the surface of NB1 cells (FIG. 3). Titration of each antibody on NB1 cells for 2-4 hours at 4° C. was followed by incubation with a fluorescently-labeled secondary antibody. The normalized mean fluorescent intensity (MFI) shown as “% Max binding” was plotted as a function of antibody concentration. The data were fit to a one site binding isotherm using GraphPad Prism, from which affinity values were derived.
# [2] = biological target: T2, purified ALK protein (BLitz, Table 20) (Homo sapiens (Human), UniProt Q9UM73 19-1038, limits assumed); assay: BLI (BLitz), mAb on Protein A tip, purified ALK in solution
# T2 construct: also called purified ALK proteins
# How it was run: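 Humanized anti-ALK mAbs loaded at 0.5 mg/mL on Protein A tips; after stable baseline, purified ALK protein at 70 μg/mL added. Kinetic traces fit to a single binding site model to give monovalent KD.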
# rat ALK, purified (rALK) = rat ALK, purified (rALK) (rat, UniProt P97793 19-1038 (mouse entry), limits assumed); assay: BLI (BLitz), estimated monovalent affinity, single dose kinetics
# Protocol: (§1) Kinetic measurements of the monovalent affinity of the 96 humanized ALK antibody variants (Ab351-Ab446) were collected. Affinity ranking was performed using a BLitz® System (ForteBio, Menlo Park, Calif.). Humanized anti-ALK antibodies were immobilized at 0.5 mg/mL using Protein A tips. Once baseline stability was ensured, purified ALK proteins at 70 μg/mL were added. The resulting kinetic data were fit to a single binding site equation, from which the quoted monovalent KD values were derived.
# (§2) KD values for both NB1 (human) cells and Neuro2a (mouse) cells were also determined.
# [3] = biological target: human ALK, purified (hALK) (human, UniProt Q9UM73 19-1038, limits assumed); assay: as above
# Protocol: as §1, §2
# [4] = biological target: mouse ALK, purified (mALK) (mouse, UniProt P97793 19-1042); assay: as above
# Protocol: as §1, §2
# [5] = biological target: T3, murine ALK (Table 18, 'mouse ALK binding') (mouse, UniProt P97793 19-1042, limits assumed); assay: ELISA on purified mouse ALK or flow cytometry on Neuro-2a cells
# T3 construct: either purified mouse ALK antigen coated in ELISA or endogenous ALK on Neuro-2a cells
# Protocol: Purified mAbs were evaluated for their ability to bind murine ALK by solid-state ELISA, or flow cytometry on Neuro-2a cells that express low levels of endogenous murine ALK.
# Luminescence data were plotted as a function of the log-transformed anti-ALK antibody concentration and fit to a 4-parameter non-linear regression equation.
# Alternatively, Neuro-2a cells were incubated with 10-100 nM of anti-ALK antibodies, followed by a fluorescently-labeled secondary antibody. Mean fluorescence intensity (MFI) of live-gated cells treated with anti-ALK antibodies was divided by background, determined using the secondary antibody alone.
# Sequence of human ALK, purified (hALK) (Q9UM73 other isoform, or with tags, fused parts or gaps limits assumed): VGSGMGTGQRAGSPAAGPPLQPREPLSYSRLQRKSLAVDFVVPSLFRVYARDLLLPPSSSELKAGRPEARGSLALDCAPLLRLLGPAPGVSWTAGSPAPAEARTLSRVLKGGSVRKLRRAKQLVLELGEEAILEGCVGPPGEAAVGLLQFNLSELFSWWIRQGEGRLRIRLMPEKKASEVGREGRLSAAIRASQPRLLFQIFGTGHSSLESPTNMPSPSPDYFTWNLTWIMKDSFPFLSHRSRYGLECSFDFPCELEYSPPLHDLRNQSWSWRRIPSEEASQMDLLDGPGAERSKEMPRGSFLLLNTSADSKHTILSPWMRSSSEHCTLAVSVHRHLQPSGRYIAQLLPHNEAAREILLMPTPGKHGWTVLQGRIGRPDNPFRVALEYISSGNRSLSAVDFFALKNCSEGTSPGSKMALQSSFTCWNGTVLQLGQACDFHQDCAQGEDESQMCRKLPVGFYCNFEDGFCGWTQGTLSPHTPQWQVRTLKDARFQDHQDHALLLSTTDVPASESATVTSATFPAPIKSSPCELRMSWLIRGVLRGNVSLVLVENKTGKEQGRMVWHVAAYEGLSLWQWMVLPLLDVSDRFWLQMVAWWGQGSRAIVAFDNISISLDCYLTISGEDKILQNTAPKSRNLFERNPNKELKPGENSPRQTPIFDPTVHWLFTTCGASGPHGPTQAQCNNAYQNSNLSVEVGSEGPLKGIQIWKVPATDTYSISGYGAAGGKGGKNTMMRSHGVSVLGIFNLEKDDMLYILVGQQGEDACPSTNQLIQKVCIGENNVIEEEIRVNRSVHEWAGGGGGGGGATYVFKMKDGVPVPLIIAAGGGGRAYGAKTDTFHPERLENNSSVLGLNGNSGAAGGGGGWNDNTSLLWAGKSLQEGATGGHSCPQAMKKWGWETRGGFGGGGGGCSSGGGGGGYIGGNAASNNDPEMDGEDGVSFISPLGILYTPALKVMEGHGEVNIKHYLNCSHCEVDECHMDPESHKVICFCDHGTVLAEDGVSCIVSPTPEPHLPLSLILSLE
# Sequence of mouse ALK, purified (mALK) (P97793 19-1042 limits assumed): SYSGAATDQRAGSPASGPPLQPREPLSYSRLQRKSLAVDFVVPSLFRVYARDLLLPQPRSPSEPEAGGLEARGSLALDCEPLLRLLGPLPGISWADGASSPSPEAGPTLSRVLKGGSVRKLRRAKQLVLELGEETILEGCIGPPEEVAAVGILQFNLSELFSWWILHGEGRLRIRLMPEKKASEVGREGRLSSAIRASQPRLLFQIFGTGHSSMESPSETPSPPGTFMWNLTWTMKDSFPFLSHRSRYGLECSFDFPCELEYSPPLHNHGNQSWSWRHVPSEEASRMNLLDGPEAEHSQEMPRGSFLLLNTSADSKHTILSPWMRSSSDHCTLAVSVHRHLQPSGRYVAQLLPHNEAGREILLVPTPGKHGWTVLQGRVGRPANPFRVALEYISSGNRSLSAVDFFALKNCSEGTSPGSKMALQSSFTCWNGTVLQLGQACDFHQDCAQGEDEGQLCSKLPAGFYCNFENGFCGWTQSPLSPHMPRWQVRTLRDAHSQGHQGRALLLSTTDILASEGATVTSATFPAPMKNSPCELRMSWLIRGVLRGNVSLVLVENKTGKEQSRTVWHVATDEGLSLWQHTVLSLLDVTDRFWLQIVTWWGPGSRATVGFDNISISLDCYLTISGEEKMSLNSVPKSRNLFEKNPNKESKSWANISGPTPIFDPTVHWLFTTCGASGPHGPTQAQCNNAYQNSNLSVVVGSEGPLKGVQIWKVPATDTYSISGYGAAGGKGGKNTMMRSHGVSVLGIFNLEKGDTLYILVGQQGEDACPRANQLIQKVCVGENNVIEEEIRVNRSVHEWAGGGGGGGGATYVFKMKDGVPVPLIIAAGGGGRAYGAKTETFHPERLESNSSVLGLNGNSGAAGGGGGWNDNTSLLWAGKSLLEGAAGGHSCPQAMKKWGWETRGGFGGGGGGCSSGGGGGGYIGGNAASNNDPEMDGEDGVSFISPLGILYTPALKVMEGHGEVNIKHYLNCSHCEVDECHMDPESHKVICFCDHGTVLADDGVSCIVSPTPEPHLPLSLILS
# Sequence of rat ALK, purified (rALK) (P97793 other isoform, or with tags, fused parts or gaps limits assumed): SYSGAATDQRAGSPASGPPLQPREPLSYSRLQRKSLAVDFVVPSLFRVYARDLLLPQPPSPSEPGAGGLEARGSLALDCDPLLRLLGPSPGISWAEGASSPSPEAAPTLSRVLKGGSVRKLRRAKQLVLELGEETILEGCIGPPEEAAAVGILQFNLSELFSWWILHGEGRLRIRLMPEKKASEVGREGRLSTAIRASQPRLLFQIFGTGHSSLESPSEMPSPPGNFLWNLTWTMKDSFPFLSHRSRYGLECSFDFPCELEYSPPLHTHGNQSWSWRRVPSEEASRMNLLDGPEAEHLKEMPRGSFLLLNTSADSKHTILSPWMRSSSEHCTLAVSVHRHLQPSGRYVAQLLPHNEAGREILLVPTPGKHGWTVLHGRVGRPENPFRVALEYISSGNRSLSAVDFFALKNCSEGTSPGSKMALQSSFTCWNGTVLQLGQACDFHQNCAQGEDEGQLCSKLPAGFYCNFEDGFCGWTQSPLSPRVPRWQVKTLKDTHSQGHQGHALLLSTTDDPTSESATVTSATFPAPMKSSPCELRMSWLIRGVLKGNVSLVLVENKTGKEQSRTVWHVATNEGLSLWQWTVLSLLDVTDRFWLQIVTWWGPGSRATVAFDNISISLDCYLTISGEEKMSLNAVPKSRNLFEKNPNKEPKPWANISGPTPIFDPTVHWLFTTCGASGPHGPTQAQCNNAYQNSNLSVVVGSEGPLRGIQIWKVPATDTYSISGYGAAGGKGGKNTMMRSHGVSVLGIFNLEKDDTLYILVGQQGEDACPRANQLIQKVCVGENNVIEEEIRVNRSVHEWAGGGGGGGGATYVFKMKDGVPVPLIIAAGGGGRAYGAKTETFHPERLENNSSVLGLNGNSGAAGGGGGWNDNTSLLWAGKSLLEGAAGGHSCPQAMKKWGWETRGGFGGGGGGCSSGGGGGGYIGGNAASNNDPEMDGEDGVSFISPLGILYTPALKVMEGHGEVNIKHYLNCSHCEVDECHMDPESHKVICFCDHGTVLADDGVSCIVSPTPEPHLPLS
# T1 sequence (Q9UM73 21-1620): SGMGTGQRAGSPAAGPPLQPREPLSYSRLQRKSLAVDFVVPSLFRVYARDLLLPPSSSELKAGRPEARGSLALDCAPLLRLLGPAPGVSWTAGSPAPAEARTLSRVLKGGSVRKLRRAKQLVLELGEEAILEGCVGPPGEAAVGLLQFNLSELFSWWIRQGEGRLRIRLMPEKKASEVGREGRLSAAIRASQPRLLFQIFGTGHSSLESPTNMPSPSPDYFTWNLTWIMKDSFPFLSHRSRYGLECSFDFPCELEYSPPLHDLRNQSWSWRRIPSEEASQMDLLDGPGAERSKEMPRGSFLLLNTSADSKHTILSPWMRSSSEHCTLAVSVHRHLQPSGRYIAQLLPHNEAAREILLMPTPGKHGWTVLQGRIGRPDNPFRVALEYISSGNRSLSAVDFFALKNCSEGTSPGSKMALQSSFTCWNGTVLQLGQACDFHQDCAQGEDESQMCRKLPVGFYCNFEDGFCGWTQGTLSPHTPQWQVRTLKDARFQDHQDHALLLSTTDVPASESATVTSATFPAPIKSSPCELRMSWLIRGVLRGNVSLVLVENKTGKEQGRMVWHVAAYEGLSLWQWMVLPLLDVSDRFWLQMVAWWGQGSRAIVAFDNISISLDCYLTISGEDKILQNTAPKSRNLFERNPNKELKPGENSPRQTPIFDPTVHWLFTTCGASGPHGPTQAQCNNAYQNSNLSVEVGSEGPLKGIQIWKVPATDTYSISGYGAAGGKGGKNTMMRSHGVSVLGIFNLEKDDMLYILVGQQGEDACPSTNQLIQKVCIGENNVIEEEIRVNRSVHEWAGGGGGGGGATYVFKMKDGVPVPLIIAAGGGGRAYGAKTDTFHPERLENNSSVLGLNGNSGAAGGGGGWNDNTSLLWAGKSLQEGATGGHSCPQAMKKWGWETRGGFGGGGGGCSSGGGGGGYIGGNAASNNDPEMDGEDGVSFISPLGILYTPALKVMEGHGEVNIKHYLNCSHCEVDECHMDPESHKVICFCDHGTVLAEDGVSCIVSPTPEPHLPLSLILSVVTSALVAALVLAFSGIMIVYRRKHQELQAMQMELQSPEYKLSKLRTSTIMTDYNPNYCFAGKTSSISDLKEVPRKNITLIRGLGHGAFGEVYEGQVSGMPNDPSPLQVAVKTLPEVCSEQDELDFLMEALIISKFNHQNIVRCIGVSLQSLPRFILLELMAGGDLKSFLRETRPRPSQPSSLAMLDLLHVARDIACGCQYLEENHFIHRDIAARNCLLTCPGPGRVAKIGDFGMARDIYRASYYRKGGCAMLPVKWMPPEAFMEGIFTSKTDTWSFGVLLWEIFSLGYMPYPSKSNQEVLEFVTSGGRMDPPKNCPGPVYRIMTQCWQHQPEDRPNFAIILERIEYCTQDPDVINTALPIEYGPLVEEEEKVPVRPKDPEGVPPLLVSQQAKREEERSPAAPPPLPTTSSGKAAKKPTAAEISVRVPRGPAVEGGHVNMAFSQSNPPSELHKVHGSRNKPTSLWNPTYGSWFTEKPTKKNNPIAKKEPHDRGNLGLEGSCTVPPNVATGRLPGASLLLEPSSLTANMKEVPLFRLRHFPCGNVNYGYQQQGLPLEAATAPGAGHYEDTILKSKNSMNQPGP
# T3 sequence (P97793 19-1042 limits assumed): as the sequence (P97793 19-1042 limits assumed) above
binder,measurement,setting,value
B1,Kd,[1],0.4 nM
B2,Kd,[1],0.1 nM
B3,Kd,[2],77.2 nM
same,Kd,"rat ALK, purified (rALK)",24 nM
same,Kd,[3],105 nM
same,Kd,[4],205 nM
B4,Kd,"rat ALK, purified (rALK)",18 nM
B5,Kd,"rat ALK, purified (rALK)",22 nM
B6,Kd,[2],86.5 nM
same,Kd,"rat ALK, purified (rALK)",31 nM
same,Kd,[3],103 nM
same,Kd,[4],150 nM
B7,Kd,"rat ALK, purified (rALK)",24 nM
B8,Kd,[1],2.5 nM
same,binding result,[5],no binding
B9,Kd,"rat ALK, purified (rALK)",35 nM
same,Kd,[3],69 nM
same,Kd,[4],120 nM
same,Kd,[1],0.35 nM
B10,Kd,[1],0.5 nM
same,binding result,[5],no binding
B11,Kd,[1],0.08 nM
